Measured values published in article PMC3854527.
Residue numbers refer to the chain shown, from its start.

Tests used:
Sub2p Y12S = biological target: T1, Sub2p Y12S (Saccharomyces cerevisiae, UniProt Q07478 1-446, Y12S); assay: EMSA
T1 sequence: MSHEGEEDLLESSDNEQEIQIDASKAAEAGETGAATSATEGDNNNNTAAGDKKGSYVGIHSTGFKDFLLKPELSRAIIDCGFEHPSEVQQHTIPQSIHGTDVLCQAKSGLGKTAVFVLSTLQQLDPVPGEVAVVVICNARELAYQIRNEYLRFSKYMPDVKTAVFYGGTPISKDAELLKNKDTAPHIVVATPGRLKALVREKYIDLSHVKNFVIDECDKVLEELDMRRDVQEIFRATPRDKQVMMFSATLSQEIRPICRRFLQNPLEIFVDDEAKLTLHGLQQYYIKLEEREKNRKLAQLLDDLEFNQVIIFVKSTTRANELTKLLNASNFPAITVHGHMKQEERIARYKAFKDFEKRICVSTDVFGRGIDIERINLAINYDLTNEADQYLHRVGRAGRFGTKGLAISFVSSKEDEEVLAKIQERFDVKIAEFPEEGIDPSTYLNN

Sub2p wt = biological target: T2, Sub2p wt (Saccharomyces cerevisiae, UniProt Q07478 1-446); assay: EMSA
T2 sequence: T1 sequence with S12Y

Binder: AGCACCGUAAAGC (ssRNA) [13-mer ssRNA]
- binding result (Sub2p Y12S): binds
- binding result (Sub2p wt): binds
